In paper PMC8733390, “Transcription Factor CitERF16 Is Involved in Citrus Fruit Sucrose Accumulation by Activating CitSWEET11d”:

Target: T1, CitERF16 (Citrus, UniProt V4VLW3 1-243)
T1 sequence: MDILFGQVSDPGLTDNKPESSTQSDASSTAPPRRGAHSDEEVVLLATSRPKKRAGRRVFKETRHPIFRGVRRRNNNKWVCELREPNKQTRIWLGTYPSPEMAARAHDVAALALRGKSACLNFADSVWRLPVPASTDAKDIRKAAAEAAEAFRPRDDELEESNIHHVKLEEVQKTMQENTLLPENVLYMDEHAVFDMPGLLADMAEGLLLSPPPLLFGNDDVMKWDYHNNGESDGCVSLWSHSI
Test: EMSA; unlabelled same-sequence probe reduced binding; LightShift Chemiluminescent EMSA kit (Thermo), per manufacturer; buffer, salt, pH and temperature not stated
Details: protein: recombinant; tags: His (pET-32a vector fusion); label: 3'-biotin; blunt

B1: CitSWEET11d promoter probe (dsDNA)
DNA 1: AAACGATGTCGGTACTCGGTCCGCATGCAATCATACAAAACAACAAGAAT
DNA 2: ATTCTTGTTGTTTTGTATGATTGCATGCGGACCGAGTACCGACATCGTTT
binding result: binds
